Biological target: the molecule itself
Assay: cryo-EM structure; KimA in SMA lipid particles (SMALPs) at 1.1 mg/mL, 50 mM Tris pH 8, 100 mM KCl, with 50 uM cyclic di-AMP; C2 symmetry; 3.7 A

B1: KimA from Bacillus subtilis (natural protein)
chain: MYHSIKRFLIGKPLKSQAAGEQKLTKLKALAMLSSDALSSVAYGTEQILIILATISAAAFWYSIPIAVGVLILLLALILSYRQIIYAYPQGGGAYIVSKENLGEKPGLIAGGSLLVDYILTVAVSISAGTDAITSAFPALHDYHVPIAIFLVLVIMILNLRGLSESASILAYPVYLFVVALLVLIAVGLFKLMTGQIDQPAHHTSLGTPVAGITLFLLLKAFSSGCSALTGVEAISNAIPAFKNPPARNAARTLAMMGILLAILFSGITVLAYGYGTAPKPDETVVSQIASETFGRNVFYYVIQGVTSLILVLAANTGFSAFPQLAFNLARDQYMPRMFTVRGDRLGFSNGIIFLGFASIVLIILFGGQTEHLIPLYAVGVFIPFTLSQTGMCMKWIKQKPKGWIGKMLINSCGALISFMVLSILFVTKFNVVWPVLIFMPIVVLLFFAIKNHYTAVGEQLRIVDKEPEEIKGTVVIVPVAGVTTVVQKSIHYAKSLSDQVIAVHVSFDREQEKKFEKRWEELNNGVRLVTLHSSYRSLVHPFDKFLETVEAKAKKEQFSVMVLFPQFITKKRWHTILHNQSAFLLRVRLFWKKDIMVATLPYHFKK
notes: KimA, potassium importer of the KUP family, Bacillus subtilis; gene amplified from genomic DNA; Homodimer in the cryo-EM structure; The model holds 572 of 607 residues (it lacks the first 26 residues and residues 480-481, 534-538 and 607); Primers are in the Supplementary Methods; also called wild-type KimA; potassium importer KimA; source: E. coli LB2003, purified (membranes solubilised with SMA …)
stoichiometry N: 2

Source: PMC6994465, “Structural basis of proton-coupled potassium transport in the KUP family” (Nature Communications, 2020)
